Some targets named below: CLK3 (h) (human) (UniProt P49761); Src(1-530) (h) (human) (UniProt P12931); MELK (h) (human) (UniProt Q14680); DAPK2 (h) (human) (UniProt Q9UIK4); PKCε (h) (human) (UniProt Q02156); EGFR(T790M) (h) (human) (UniProt P00533); EphB2 (h) (human) (UniProt P29323); cKit(D816V) (h) (human) (UniProt P10721); PASK (h) (human) (UniProt Q96RG2); SAPK2a (h) (human) (UniProt Q16539); Syk (h) (human) (UniProt P43405); Met (h) (human) (UniProt P08581); EGFR (h) (human) (UniProt P00533); SIK (h) (human) (UniProt P57059); ALK (h) (human) (UniProt Q9UM73).

What all share (assay): cell-based or functional assay
The next assay addresses T1, SAPK4 (h) (human) (UniProt O15264).
T1 sequence (looked up): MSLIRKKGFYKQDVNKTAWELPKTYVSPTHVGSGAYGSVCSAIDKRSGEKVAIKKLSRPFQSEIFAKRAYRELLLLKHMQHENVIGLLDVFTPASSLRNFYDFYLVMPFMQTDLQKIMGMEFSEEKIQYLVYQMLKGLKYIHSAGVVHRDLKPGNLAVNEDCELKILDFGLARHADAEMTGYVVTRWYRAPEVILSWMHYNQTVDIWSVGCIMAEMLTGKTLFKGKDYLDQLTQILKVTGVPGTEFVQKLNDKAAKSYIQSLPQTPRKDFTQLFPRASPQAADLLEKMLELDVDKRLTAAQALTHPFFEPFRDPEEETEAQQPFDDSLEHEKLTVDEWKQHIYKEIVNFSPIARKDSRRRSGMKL

Another assay deals with T2, NLK (h) (human) (UniProt Q9UBE8).
T2 sequence (looked up): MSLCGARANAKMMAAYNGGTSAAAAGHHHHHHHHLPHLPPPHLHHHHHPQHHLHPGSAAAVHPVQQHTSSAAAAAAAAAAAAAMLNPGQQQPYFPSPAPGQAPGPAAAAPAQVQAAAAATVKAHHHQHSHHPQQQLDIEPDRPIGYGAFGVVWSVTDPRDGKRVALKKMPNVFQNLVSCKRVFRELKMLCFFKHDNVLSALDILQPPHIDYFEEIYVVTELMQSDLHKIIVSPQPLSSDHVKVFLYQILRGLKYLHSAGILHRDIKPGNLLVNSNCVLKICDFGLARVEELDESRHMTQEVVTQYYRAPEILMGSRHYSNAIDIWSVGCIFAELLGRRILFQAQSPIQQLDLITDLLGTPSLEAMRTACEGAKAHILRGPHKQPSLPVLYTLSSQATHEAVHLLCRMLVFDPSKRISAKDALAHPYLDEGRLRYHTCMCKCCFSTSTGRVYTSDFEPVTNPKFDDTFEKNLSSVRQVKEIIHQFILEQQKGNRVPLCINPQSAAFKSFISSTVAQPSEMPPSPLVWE

The target of another assay is T3, PKG1β (h) (human) (UniProt Q13976).
T3 sequence (looked up): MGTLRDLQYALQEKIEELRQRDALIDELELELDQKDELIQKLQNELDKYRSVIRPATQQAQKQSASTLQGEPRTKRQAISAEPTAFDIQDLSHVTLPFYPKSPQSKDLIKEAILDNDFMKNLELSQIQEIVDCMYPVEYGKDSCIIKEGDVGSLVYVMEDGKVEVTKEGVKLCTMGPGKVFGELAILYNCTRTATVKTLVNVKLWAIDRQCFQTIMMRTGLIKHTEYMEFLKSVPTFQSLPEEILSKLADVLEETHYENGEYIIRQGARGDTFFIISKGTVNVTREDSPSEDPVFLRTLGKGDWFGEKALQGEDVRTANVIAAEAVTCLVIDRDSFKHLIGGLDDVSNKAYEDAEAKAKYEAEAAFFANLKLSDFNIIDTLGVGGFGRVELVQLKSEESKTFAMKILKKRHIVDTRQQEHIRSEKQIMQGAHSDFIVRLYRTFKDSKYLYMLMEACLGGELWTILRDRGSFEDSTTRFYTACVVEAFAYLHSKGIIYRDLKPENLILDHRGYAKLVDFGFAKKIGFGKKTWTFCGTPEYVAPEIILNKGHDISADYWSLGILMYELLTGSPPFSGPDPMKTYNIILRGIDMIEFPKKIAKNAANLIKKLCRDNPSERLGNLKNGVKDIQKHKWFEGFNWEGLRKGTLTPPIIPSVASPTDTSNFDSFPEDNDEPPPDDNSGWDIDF

Another assay has as its target T4, EphA1 (h) (human) (UniProt P21709).
T4 sequence (looked up): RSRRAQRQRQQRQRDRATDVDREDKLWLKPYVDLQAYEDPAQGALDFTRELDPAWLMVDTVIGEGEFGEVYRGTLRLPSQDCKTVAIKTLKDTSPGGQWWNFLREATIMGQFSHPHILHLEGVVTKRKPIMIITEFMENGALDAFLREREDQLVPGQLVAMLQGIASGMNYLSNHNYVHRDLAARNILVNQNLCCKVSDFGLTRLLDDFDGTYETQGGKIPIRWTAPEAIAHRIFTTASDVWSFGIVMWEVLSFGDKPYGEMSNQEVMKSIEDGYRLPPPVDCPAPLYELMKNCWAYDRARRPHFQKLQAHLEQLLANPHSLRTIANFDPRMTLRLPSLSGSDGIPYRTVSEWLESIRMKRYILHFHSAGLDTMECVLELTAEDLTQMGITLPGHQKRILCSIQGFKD

Sequence of cKit(D816V) (h) (human) (P10721 544-976 D816V): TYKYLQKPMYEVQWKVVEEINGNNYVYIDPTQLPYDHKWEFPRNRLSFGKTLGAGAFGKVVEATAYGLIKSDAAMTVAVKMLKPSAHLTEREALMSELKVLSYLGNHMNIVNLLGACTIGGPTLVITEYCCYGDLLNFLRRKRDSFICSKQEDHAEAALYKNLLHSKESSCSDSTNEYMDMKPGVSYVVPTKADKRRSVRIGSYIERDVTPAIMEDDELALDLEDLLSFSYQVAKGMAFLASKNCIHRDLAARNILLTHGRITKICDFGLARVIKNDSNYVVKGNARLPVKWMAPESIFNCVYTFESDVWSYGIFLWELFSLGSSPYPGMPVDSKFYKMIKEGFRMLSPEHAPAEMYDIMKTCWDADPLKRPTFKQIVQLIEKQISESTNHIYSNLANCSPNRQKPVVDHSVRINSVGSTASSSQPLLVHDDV
Sequence of EphB2 (h) (human) (P29323 565-986 limits assumed): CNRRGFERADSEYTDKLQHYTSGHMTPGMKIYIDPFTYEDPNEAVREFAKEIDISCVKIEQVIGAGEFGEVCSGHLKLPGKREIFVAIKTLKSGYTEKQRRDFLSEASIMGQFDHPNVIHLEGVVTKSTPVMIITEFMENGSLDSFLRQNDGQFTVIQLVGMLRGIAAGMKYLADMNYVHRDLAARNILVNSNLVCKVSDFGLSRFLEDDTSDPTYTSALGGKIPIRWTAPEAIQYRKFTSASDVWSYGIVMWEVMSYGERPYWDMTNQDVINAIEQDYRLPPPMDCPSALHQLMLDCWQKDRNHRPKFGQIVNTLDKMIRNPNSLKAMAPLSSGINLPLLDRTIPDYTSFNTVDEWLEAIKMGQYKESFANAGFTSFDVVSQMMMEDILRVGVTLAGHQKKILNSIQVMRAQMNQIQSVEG
Sequence of Met (h) (human) (P08581 956-1390 limits assumed): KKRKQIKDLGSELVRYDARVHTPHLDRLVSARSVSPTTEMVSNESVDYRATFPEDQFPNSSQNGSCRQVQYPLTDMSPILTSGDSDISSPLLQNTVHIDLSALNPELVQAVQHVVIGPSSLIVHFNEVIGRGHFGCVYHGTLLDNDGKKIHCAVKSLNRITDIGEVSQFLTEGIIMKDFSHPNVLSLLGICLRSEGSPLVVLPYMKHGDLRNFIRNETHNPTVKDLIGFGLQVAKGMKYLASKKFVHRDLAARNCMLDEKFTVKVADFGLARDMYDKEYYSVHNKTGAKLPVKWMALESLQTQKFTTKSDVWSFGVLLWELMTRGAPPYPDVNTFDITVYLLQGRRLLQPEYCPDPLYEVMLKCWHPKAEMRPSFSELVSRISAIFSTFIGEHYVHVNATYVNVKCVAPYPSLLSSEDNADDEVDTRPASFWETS
Sequence of SAPK2a (h) (human) (Q16539 whole entry): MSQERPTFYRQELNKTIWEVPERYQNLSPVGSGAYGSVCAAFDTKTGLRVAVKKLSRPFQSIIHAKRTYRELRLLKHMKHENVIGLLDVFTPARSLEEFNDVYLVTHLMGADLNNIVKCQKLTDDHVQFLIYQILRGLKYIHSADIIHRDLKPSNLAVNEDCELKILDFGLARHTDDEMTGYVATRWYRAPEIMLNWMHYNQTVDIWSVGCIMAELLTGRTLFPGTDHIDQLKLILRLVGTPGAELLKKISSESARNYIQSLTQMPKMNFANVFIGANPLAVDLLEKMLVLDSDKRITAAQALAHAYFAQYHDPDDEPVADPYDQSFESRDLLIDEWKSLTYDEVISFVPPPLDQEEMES

As to MMI-0300 (peptide), the % activity at 100 µM was found to be 61% with CLK3 (h) (human); 23% in the assay with Src(1-530) (h) (human); 96% with SAPK4 (h) (human); 16% with MELK (h) (human); 32% with DAPK2 (h) (human); 87% with NLK (h) (human). In addition, the % activity at 100 µM with PKG1β (h) (human) was determined as 50%; with PKCε (h) (human) it was 79%; with EGFR(T790M) (h) (human), 100%; in the assay with EphB2 (h) (human), 18%; with EphA1 (h) (human), 73%; in the assay with cKit(D816V) (h) (human) it was 60%. Also, the % activity at 100 µM came to 29% with PASK (h) (human); 90% in the assay with SAPK2a (h) (human); 24% in the assay with Syk (h) (human); 65% with Met (h) (human); 21% with EGFR (h) (human); 66% with SIK (h) (human). This substance also gave a % activity at 100 µM with ALK (h) (human) of 19%.

Values taken from patent publication US20160136234A1.
